The record followed here is article PMC3428728.

This series relates to hSWI/SNF complex (FLAG-tagged) (Homo sapiens (HeLa)). Nature of the series: competition. The settings on record: scale: fold preference over macroH2A nucleosome.

The substance 20/60 H2A nucleosome displayed a binding signal of 9.
